Data set [1] is described as follows: Plasma PAF-AH activity in rats of the NEC experiments. Format: in vivo, rat. The protocol:
The plasma PAF-AH activities were also determined in the rats utilized in the experiment described above. PAF-AH activity was determined as follows. Prior to the tail vein injection, blood samples were obtained. Subsequently blood samples were obtained from the vena cava just prior to the injection of PAF and at the time of sacrifice. Approximately 50 μl of blood was collected in heparinized capillaries. The plasma was obtained following centrifugation (980×g for 5 minutes). The enzyme was assayed as previously described by Yasuda and Johnston, Endocrinology, 130:708-716 (1992).
(§1) In order to determine if the protection against NEC in rats was dose dependent, animals were treated with increasing doses of PAF-AH 15 minutes prior to PAF administration. Initially, PAF-AH, ranging from 25.5 to 25,500 units were administered into the tail vein of rats. PAF (0.4 μg in 0.2 ml of BSA-saline) was subsequently injected into the abdominal aorta 15 minutes after the administration of PAF-AH. The small intestine was removed and examined for NEC development 2 hours after PAF administration. Plasma PAF-AH activity was determined prior to the exogenous administration of the enzyme, and 15 minutes and 21/4 hours after PAF-AH administration. The results are the mean of 2-5 animals in each group.

Data set [2] deals with antigen-induced eosinophil recruitment. Description: Antigen-induced eosinophil recruitment to trachea of OVA-sensitized mice. Conditions: 750 units IV 30 minutes before and 24 hours after aerosolized OVA; 48 hours. The data set is classed as in vivo, mouse. The protocol: The accumulation of eosinophils in the airway is a characteristic feature of late phase immune responses which occur in asthma, rhinitis and eczema. BALB/c mice (Charles River) were sensitized by two intraperitoneal injections consisting of 1 μg of ovalbumin (OVA) in 4 mg of aluminum hydroxide (Imject alum, Pierce Laboratories, Rockford, Ill.) given at a 2 week interval. Fourteen days following the second immunization, the sensitized mice were challenged with either aerosolized OVA or saline as a control.
Prior to challenge mice were randomly placed into four groups, with four mice/group. Mice in groups 1 and 3 were pretreated with 140 μl of control buffer consisting of 25 mM tris, 0.5M NaCl, 1 mM EDTA and 0.1% Tween 80 given by intravenous injection. Mice in groups 2 and 4 were pretreated with 750 units of PAF-AH (activity of 5,500 units/ml given in 140 μl of PAF-AH buffer). Thirty minutes following administration of PAF-AH or buffer, mice in groups 1 and 2 were exposed to aerosolized PBS as described below, while mice in groups 3 and 4 were exposed to aerosolized OVA. Twenty-four hours later mice were treated a second time with either 140 μl of buffer (groups 1 and 3) or 750 units of PAF-AH in 140 μl of buffer (groups 2 and 4) given by intravenous injection.
Eosinophil infiltration of the trachea was induced in the sensitized mice by exposing the animals to aerosolized OVA. […]

The test system of data set [3] is PAF-induced necrotizing enterocolitis. Kind of data set: Rat model of PAF-induced necrotizing enterocolitis (NEC). The data set is classed as in vivo. The protocol: The small intestines were removed after 2 hours from the ligament of Trietz to the cecum, thoroughly washed with cold saline and examined grossly. Samples were obtained from microscopic examination from the upper, middle and lower portions of the small intestine. The tissues were fixed in buffered formalin and the sample processed for microscopic examination by staining with hematoxylin and eosin. The experiment was repeated three times.
as §1
In order to determine the length of time exogenous PAF-AH afforded protection against development of NEC, rats were injected once with a fixed amount of the enzyme via the tail vein and subsequently challenged with PAF at various time points. PAF-AH (8,500 units in 0.3 ml) or vehicle alone was administered into the tail vein of rats, and PAF (0.36 μg in 0.2 ml of BSA-saline) was injected into the abdominal aorta at the various times after the enzyme administration. The small intestines were removed 2 hours after the PAF injection for gross and histological examinations in order to evaluate for NEC development. Plasma PAF-AH activities were determined at various times after enzyme administration and two hours after PAF administration. The mean value±standard error for enzyme activity was determined for each group.
In order to determine if administration of PAF-AH was capable of reversing development of NEC induced by PAF injection, 25,500 units of enzyme was administered via injection into the vena cava two minutes following PAF administration (0.4 μg).

The mark [4] stands for this setting: 25,500 units IV, 21/4 hours after injection.

B1: PAF-AH: Recombinant human plasma platelet-activating factor acetylhydrolase (beginning at Ile42 of SEQ ID NO:8) expressed in E. coli (protein, UniProt Q13093 22-441, looked up)
Platelet-activating factor …: FDWQYINPVAHMKSSAWVNKIQVLMAAASFGQTKIPRGNGPYSVGCTDLMFDHTNKGTFLRLYYPSQDNDRLDTLWIPNKEYFWGLSKFLGTHWLMGNILRLLFGSMTTPANWNSPLRPGEKYPLVVFSHGLGAFRTLYSAIGIDLASHGFIVAAVEHRDRSASATYYFKDQSAAEIGDKSWLYLRTLKQEEETHIRNEQVRQRAKECSQALSLILDIDHGKPVKNALDLKFDMEQLKDSIDREKIAVIGHSFGGATVIQTLSEDQRFRCGIALDAWMFPLGDEVYSRIPQPLFFINSEYFQYPANIIKMKKCYSPDKERKMITIRGSVHQNFADFTFATGKIIGHMLKLKGDIDSNVAIDLSNKASLAFLQKHLGLHKDFDQWDCLIEGDDENLIPGTNINTTNQHIMLQNSSGIEKYN
Regarding B1, the “plasma PAF-AH activity after 15 minutes” value in data set [1] (2040 units IV) is recorded as 363 units per ml of plasma. Besides, the “increase of plasma PAF-AH activity over basal levels” value in data set [1] (2040 units IV, 15 minutes) is listed as “five-fold increase over basal levels”. Also, the “plasma PAF-AH activity at time of sacrifice, groups 2 and 4” value in data set [1] (25,500 units IV, 21/4 hours after PAF-AH injection) was 1855±257 units. In data set [1] (setting [4]), the “plasma PAF-AH activity at time of sacrifice, Group 2” value turned out to be 1771±308 and the “plasma PAF-AH activity at time of sacrifice, Group 4” value is listed as 1939±478. The “plasma PAF-AH activity after 15 minutes, group 2” value in data set [1] (25,500 units IV, BSA-saline group) was 2249±341 units (1 unit equals 1 nmoles×min^-1 ×ml^-1 plasma). Further, the “plasma PAF-AH activity after 15 minutes, group 4” value in data set [1] (25,500 units IV, PAF group) is listed as 2494±623 units (1 unit equals 1 nmoles×min^-1 ×ml^-1 plasma). In addition, the “resultant plasma enzyme activity” value in data set [1] (less than 1,020 total units administered) is not above 160. In addition, the “eosinophils in submucosal tissue of trachea” value in data set [2] is recorded as “very few eosinophils in the submucosal tissue”. Besides, in data set [3] (8,500 units IV once), the “NEC development, PAF challenge within the first eight hours after injection” value is reported as “none of the rats developed NEC”; the “animals developing NEC, PAF challenge at 24 and 48 hours after injection” value worked out at 100%. The “protection against NEC” value in data set [3] (25,500 units IV followed by PAF injection) is “completely protected”. In addition, in data set [3] (25,500 units IV, no PAF), the “gross findings of bowel, PAF-AH in the absence of PAF” value is “no effect on the gross findings”. The “NEC development, enzyme given 15 minutes after PAF” value in data set [3] (25,500 units into vena cava) is “all animals developed NEC”. The “NEC development, enzyme given two minutes following PAF” value in data set [3] (25,500 units into vena cava, PAF 0.4 μg) is “None of the animals developed NEC”. In data set [3] (25,500 units via tail vein 15 minutes prior to PAF into aorta), the “gross findings of bowel” value was “the bowel appeared to be normal”. Also, the “lowest protective amount of enzyme against NEC” value in data set [3] (IV 15 minutes prior to PAF 0.4 μg) worked out at 2040 units. Besides, the “NEC development at low doses” value in data set [3] (less than 2,000 units of the enzyme) is “developed NEC”.

Source of the values: patent US5847088A, “Antibodies specific for platelet-activating factor acetylhydrolase” (ICOS Corporation, priority 1995, dated 1998).
